# From article PMC11963670
# Experiments:
# [1] = target: RHDV GI.2 P domain loop-swap mutant L3´ (loop 3 of GI.1b), His-tagged MBP fusion (rabbit hemorrhagic disease virus GI.2 (isolate N-11)); experiment: native gel or EMSA; nondenaturing PAGE of the MBP-P domain fusions, western blot with an anti-His tag monoclonal antibody; monomer band (calculated 85 kDa) and a slower band of the dimer
# [2] = target: RHDV GI.2 P domain loop-swap mutant L4´L5´ (loops 4 and 5 of GI.1b), His-tagged MBP fusion (rabbit hemorrhagic disease virus GI.2 (isolate N-11)); experiment: as above
# [3] = target: RHDV GI.2 P domain loop-swap mutant L2´ (loop 2 of GI.1b), His-tagged MBP fusion (rabbit hemorrhagic disease virus GI.2 (isolate N-11)); experiment: as above
# [4] = target: RHDV GI.2 P domain loop-swap mutant L1´L4´ (loops 1 and 4 of GI.1b), His-tagged MBP fusion (rabbit hemorrhagic disease virus GI.2 (isolate N-11)); experiment: as above
# [5] = target: RHDV GI.2 P domain loop-swap mutant L5´ (loop 5 of GI.1b), His-tagged MBP fusion (rabbit hemorrhagic disease virus GI.2 (isolate N-11)); experiment: as above
# [6] = target: RHDV GI.2 wild-type P domain of VP60 (isolate N-11), His-tagged MBP fusion (rabbit hemorrhagic disease virus GI.2 (isolate N-11)); experiment: as above
# [7] = target: RHDV GI.2 P domain mutant N387A, MBP fusion (rabbit hemorrhagic disease virus GI.2 (isolate N-11)); experiment: native gel or EMSA; PAGE under denaturing or native conditions of the MBP-P domain point mutants; monomer and homodimer bands; BSA as negative control
# [8] = target: RHDV GI.2 P domain loop-swap mutant L4´ (loop 4 of GI.1b), His-tagged MBP fusion (rabbit hemorrhagic disease virus GI.2 (isolate N-11)); experiment: native gel or EMSA; nondenaturing PAGE of the MBP-P domain fusions, western blot with an anti-His tag monoclonal antibody; monomer band (calculated 85 kDa) and a slower band of the dimer
# [9] = target: RHDV GI.2 P domain loop-swap mutant L1´ (loop 1 of GI.1b), His-tagged MBP fusion (rabbit hemorrhagic disease virus GI.2 (isolate N-11)); experiment: as above
# [10] = target: RHDV GI.2 P domain mutant N387D, MBP fusion (rabbit hemorrhagic disease virus GI.2 (isolate N-11)); experiment: native gel or EMSA; PAGE under denaturing or native conditions of the MBP-P domain point mutants; monomer and homodimer bands; BSA as negative control
# [11] = target: RHDV GI.2 P domain loop-swap mutant L1´L4´L5´ (loops 1, 4 and 5 of GI.1b), His-tagged MBP fusion (rabbit hemorrhagic disease virus GI.2 (isolate N-11)); experiment: native gel or EMSA; nondenaturing PAGE of the MBP-P domain fusions, western blot with an anti-His tag monoclonal antibody; monomer band (calculated 85 kDa) and a slower band of the dimer
# [12] = target: RHDV GI.1b P domain of VP60, MBP fusion (rabbit hemorrhagic disease virus GI.1b (isolate RHDV-Ast89)); experiment: as above
substance,measurement,setting,value
"RHDV GI.2 P domain loop-swap mutant L3´ (loop 3 of GI.1b), His-tagged MBP fusion (domain or fragment)",stoichiometry N,[1],2
"RHDV GI.2 P domain loop-swap mutant L4´L5´ (loops 4 and 5 of GI.1b), His-tagged MBP fusion (domain or fragment)",stoichiometry N,[2],2
"RHDV GI.2 P domain loop-swap mutant L2´ (loop 2 of GI.1b), His-tagged MBP fusion (domain or fragment)",stoichiometry N,[3],2
"RHDV GI.2 P domain loop-swap mutant L1´L4´ (loops 1 and 4 of GI.1b), His-tagged MBP fusion (domain or fragment)",stoichiometry N,[4],2
"RHDV GI.2 P domain loop-swap mutant L5´ (loop 5 of GI.1b), His-tagged MBP fusion (domain or fragment)",stoichiometry N,[5],2
"RHDV GI.2 wild-type P domain of VP60 (isolate N-11), His-tagged MBP fusion (domain or fragment)",stoichiometry N,[6],2
"RHDV GI.2 P domain mutant N387A, MBP fusion (domain or fragment)",stoichiometry N,[7],2
"RHDV GI.2 P domain loop-swap mutant L4´ (loop 4 of GI.1b), His-tagged MBP fusion (domain or fragment)",stoichiometry N,[8],2
"RHDV GI.2 P domain loop-swap mutant L1´ (loop 1 of GI.1b), His-tagged MBP fusion (domain or fragment)",stoichiometry N,[9],2
"RHDV GI.2 P domain mutant N387D, MBP fusion (domain or fragment)",stoichiometry N,[10],2
"RHDV GI.2 P domain loop-swap mutant L1´L4´L5´ (loops 1, 4 and 5 of GI.1b), His-tagged MBP fusion (domain or fragment)",stoichiometry N,[11],2
"RHDV GI.1b P domain of VP60, MBP fusion (domain or fragment)",stoichiometry N,[12],2
